Reference: US20060148683A1, “Detection and treatment of intravascular lesions” (priority 2001, published 2006)

Tested on: thrombus
Test: Treatment of a thrombus in guinea pig inferior vena cava monitored by catheter fluorescence detection
Format: in vivo
Conditions: guinea pig IVC thrombus; tPA delivered through the catheter after optical agent 0.02 μmol/kg
Description: A guinea pig (Harley, male) is anaesthetized. […] The vessel is allowed to recover for 10 mins. A 1 cm portion of the IVC is clamped and human thrombin (50 μL, 4 units) is injected into the vessel to promote thrombus formation. The lower clamp is opened and closed to allow partial blood flow to the segment. After 2-3 mins., the clips are removed. The thrombus is allowed to age in the animal for 30 mins. At this point, the optical agent is administered at a dose of 0.02 μmol/kg, via injection into the jugular vein. After 30 mins., a catheter with an optical fluorescence detector is inserted into the IVC and the thrombus visualized by detecting the fluorescence signal emitted by the fibrin-optical agent complexes on the thrombus. […] TNKASE™ (Tenecteplase) is a commercially approved tissue plasminogen activator (tPA) produced by recombinant DNA technology and sold by Genetech. The drug is administered intravenously at a dose of 30-50 mg, depending on patient weight.

B1: Tissue plasminogen activator (protein, UniProt P00750 36-562, looked up)
Tissue-type plasminogen …: SYQVICRDEKTQMIYQQHQSWLRPVLRSNRVEYCWCNSGRAQCHSVPVKSCSEPRCFNGGTCQQALYFSDFVCQCPEGFAGKCCEIDTRATCYEDQGISYRGTWSTAESGAECTNWNSSALAQKPYSGRRPDAIRLGLGNHNYCRNPDRDSKPWCYVFKAGKYSSEFCSTPACSEGNSDCYFGNGSAYRGTHSLTESGASCLPWNSMILIGKVYTAQNPSAQALGLGKHNYCRNPDGDAKPWCHVLKNRRLTWEYCDVPSCSTCGLRQYSQPQFRIKGGLFADIASHPWQAAIFAKHRRSPGERFLCGGILISSCWILSAAHCFQERFPPHHLTVILGRTYRVVPGEEEQKFEVEKYIVHKEFDDDTYDNDIALLQLKSDSSRCAQESSVVRTVCLPPADLQLPDWTECELSGYGKHEALSPFYSERLKEAHVRLYPSSRCTSQHLLNRTVTDNMLCAGDTRSGGPQANLHDACQGDSGGPLVCLNDGRMTLVGIISWGLGCGQKDVPGVYTKVTNYLDWIRDNMRP
notes: thrombolytic
Optical fluorescence signal of fibrin-optical agent complexes on thrombus (clot dissolution and lysis): optical fluorescence signal decreases
